# In patent publication US7339039B2, “Nucleic acids encoding receptor recognition factors, and methods of use thereof” (The Rockfeller University, priority 1992, dated 2008):
# B1: GST-91SH2: GST fusion protein encoding amino acids 573 to 672 of Stat91 (protein)
# chain: WNDGCIMGFISKERERALLKDQQPGTFLLRFSESSREGAITFTWVERSQNGGEPDFHAVEPYTKKELSAVTFPDIIRNYKVMAAENIPENPLKYLYPNID
# modifications: left off: a dimerising Fc or GST
# notes: GST fusion protein encoding amino acids 573 to 672 of Stat91
# Tested on: Stat84 and Stat91L homodimers
# Sequence (P42224 2-712 limits assumed): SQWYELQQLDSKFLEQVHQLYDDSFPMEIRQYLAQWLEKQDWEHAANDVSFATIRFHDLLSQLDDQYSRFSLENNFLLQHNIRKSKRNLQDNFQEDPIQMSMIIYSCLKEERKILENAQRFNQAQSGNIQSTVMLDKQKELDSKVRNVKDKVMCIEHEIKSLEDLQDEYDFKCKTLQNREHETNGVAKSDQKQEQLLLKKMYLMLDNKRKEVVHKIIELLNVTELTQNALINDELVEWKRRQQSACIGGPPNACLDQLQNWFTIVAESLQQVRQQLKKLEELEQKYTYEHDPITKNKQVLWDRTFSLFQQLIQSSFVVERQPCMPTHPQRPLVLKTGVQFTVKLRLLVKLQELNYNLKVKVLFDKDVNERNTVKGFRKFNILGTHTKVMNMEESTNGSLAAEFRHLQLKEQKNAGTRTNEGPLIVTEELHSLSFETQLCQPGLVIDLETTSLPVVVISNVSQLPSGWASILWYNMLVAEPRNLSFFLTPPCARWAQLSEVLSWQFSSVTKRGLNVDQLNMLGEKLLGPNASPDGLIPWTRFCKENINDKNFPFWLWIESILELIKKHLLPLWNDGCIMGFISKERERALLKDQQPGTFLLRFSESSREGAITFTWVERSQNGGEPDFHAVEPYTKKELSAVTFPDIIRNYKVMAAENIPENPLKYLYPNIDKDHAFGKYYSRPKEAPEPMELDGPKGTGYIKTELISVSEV
# Assay: Dissociation-reassociation analysis (gel mobility shift with GAS probe)
# Type: biochemical, human
# Conditions: GST fusion protein 0.5 to 5 μM
# Experimental: Gel Mobility Shift Assays. Gel mobility shift assays were carried out as described (34). An oligonucleotide corresponding to the GAS element from the human FcγRI receptor gene (Pearse et al. 1993) was synthesized and used for gel mobility shift assays. The oligonucleotide has the following sequence: 5′[…]3′ (SEQ. ID NO:17).
# Dissociation-reassociation Analysis. Extracts were incubated with various concentrations of peptides or fusion proteins, and ^32P-labeled GAS oligonucleotide probe in gel shift buffer was then added to promote the formation of protein-DNA complex followed by mobility shift analysis.
# Dimerization of Stat91 Involves Phosphoryrosyl Peptide and SH2 Interactions. Based on the results described above, we devised a dissociation-reassociation assay in the absence of guanidium hydrochloride to explore the possible nature of interactions involved in dimer formation (FIG. 20). When the short and the long forms of a homodimer are mixed with a dissociating agent (e.g., a peptide containing the putative dimerization domain), the subunits of the dimer should dissociate (in a concentration dependent fashion) due to the interaction of the agent with the dimerization domain(s) of the protein. […] At high concentration of the dissociating agent, subunits of the dimer may not be able to re-form and no DNA-protein complexes would be detected (FIG. 20).
molecule,measurement,value
B1,formation of heterodimer / exchange of subunits between Stat84 and Stat91L homodimers,promoted the formation of a heterodimer
